Laboratory results from patent publication US20230357420A1 (VILLARIS THERAPEUTICS, published 2023).
Where a chain is given by its changes, count along the chain named.

T1: Human CD122 His tagged (human, UniProt P14784 27-240)
T1 construct: also called hCD122; monomeric antigen; not shown: His tag
T1 sequence: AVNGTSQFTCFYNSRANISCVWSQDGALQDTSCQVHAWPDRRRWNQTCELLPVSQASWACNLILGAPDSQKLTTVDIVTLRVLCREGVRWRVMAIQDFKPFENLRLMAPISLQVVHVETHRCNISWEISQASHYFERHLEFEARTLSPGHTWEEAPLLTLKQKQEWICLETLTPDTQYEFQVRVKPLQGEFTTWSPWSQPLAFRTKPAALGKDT

T2: Rhesus CD122 His tag (rhesus monkey, UniProt Q38J85 27-240 (cynomolgus entry))
T2 construct: also called rhCD122; cynomolgus and/or rhesus monkey CD122 His tag; not shown: His tag
T2 sequence: T1 sequence with Q7R, A66T, T74A, L83M, V92M, E127K, L158M

T3: Human CD122 (human, UniProt P14784 27-551)
T3 sequence: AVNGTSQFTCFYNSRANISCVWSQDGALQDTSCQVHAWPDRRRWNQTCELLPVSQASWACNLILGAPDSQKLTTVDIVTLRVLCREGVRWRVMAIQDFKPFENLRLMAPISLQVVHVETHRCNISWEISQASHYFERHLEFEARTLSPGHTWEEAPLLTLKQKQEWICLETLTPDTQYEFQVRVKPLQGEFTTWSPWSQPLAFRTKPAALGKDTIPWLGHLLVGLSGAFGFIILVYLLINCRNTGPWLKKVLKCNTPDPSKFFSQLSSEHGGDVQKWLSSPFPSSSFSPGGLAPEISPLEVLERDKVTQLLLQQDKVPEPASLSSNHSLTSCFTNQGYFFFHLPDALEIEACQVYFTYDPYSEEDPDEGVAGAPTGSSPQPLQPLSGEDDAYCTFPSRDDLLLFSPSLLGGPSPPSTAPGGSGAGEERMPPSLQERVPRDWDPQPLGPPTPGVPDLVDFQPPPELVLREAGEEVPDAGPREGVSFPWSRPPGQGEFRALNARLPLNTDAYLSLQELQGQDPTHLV

T4: Human BCAM protein (human, UniProt P50895 32-547, limits assumed)
T4 construct: Protein used in ELISA; also called BCAM (ELISA antigen)
T4 sequence: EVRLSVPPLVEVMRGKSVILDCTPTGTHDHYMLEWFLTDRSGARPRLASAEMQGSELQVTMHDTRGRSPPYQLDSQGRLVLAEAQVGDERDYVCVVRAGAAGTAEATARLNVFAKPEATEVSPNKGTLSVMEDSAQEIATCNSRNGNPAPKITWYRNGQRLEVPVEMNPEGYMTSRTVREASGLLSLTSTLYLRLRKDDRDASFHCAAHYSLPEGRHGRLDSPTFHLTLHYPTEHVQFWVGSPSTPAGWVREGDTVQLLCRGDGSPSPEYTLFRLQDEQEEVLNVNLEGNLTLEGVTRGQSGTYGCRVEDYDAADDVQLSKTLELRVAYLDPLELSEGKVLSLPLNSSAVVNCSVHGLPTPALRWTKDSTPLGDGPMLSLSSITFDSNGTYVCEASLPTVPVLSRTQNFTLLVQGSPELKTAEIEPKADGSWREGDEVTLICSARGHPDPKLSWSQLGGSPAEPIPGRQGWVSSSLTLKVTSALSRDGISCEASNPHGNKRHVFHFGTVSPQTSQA

T5: Human CILP2 protein (human, UniProt Q8IUL8 21-1156, limits assumed)
T5 construct: also called cartilage intermediate layer protein 2
T5 sequence (looked up): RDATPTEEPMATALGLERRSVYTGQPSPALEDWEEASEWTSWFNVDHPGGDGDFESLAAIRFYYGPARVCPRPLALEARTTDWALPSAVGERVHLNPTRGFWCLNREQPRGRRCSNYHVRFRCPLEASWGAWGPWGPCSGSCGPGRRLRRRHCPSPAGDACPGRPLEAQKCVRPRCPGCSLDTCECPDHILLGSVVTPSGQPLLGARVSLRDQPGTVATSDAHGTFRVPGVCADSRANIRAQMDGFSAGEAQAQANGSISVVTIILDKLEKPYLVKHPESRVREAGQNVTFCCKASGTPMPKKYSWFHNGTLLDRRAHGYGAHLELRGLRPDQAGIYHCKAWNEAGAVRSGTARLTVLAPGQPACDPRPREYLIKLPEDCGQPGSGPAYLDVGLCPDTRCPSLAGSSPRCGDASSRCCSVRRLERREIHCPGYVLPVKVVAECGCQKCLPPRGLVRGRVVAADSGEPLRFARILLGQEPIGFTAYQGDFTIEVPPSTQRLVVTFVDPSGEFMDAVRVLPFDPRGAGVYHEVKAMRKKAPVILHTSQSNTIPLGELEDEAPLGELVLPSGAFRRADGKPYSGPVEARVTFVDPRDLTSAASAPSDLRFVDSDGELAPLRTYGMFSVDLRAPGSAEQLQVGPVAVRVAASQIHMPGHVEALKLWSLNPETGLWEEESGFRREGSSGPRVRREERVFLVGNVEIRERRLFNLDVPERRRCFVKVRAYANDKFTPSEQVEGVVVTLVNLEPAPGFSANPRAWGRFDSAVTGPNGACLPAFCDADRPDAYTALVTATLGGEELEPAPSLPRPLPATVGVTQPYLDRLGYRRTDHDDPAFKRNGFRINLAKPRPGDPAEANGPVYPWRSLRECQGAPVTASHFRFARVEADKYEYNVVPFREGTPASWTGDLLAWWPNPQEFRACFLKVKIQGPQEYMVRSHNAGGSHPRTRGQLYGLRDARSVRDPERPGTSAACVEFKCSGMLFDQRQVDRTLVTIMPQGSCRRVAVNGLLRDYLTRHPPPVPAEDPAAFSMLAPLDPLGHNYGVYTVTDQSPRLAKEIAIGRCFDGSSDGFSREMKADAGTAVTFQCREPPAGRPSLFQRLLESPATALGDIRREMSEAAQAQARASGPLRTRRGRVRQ

B1: FAB15 (Fab, V domains shown)
VH: EVQLLESGGGLVQPGGSLRLSCAASGFSVTSYGVHWIRQAPGKGLEWLGVIWSGGSTDYNAAFISRLTISKDNSKNTVYFQMNSLRAEDTAVYYCARAGDANYDGFAYWGQGTLVTVSS
VL: DIQMTQSPSSLSASVGDRVTITCQASSSVSFMYWYQQRPGKAPRLLIYDTSNLASGVPSRFSGSGSGTSYTFTISSLQPEDIATYYCQQWSTYPLTFGQGTKVEIK
notes: 06F11-V optimization variant; also called Fab version of MAB15
B2: FAB18 (Fab, V domains shown)
VH: B1 VH with A101Y
VL: B1 VL
notes: 06F11-V optimization variant; also called Fab version of MAB18
B3: FAB17 (Fab, V domains shown)
VH: B1 VH with A101Y
VL: B1 VL with S27Q, M32L
notes: 06F11-V optimization variant; also called Fab version of MAB17
B4: VillFab-1 (Fab, V domains shown)
VH: B1 VH with R86Q, V92I, A101Y
VL: B1 VL with Q3V, M4L, Q24S, A25G, I105V
notes: also called Villmab-1 in human Fab format
B5: FAB06 (Fab, V domains shown)
VH: B1 VH with S28T, G33A, I37V
VL: B1 VL
notes: 06F11-V optimization variant; also called Fab version of MAB06
B6: FAB14 (Fab, V domains shown)
VH: B1 VH
VL: B1 VL with S27Q, M32L
notes: 06F11-V optimization variant; also called Fab version of MAB14
B7: FAB05 (Fab, V domains shown)
VH: B1 VH with S28T, G33A, I37V
VL: B1 VL with S27Q, M32L
notes: 06F11-V optimization variant; also called Fab version of MAB05
B8: MAB05 (antibody, V domains shown)
VH: B1 VH with S28T, G33A, I37V
VL: B1 VL with S27Q, M32L
notes: also called Mab5; clone 05
B9: MAB06 (antibody, V domains shown)
VH: B1 VH with S28T, G33A, I37V
VL: B1 VL
notes: also called Mab6; clone 06
B10: MAB17 (antibody, human IgG1, V domains shown)
VH: B1 VH with A101Y
VL: B1 VL with S27Q, M32L
notes: also called clone 17
B11: MAB14 (antibody, human IgG1, V domains shown)
VH: B1 VH
VL: B1 VL with S27Q, M32L
notes: also called clone 14

biological target: T1, Human CD122 His tagged; test: Biacore SPR, Fab

Binder | Kd [nM]
B1 | 5.54
B2 | 11.5
B3 | 10.7
B4 | 12.4
B5 | 8.04
B6 | 4.34
B7 | 10.2

biological target: T2, Rhesus CD122 His tag; test: Biacore SPR, Fab

Binder | Kd [nM]
B1 | 4.47
B2 | 8.55
B3 | 7.93
B4 | 10.2
B5 | 9.78
B6 | 3.52
B7 | 8.86

biological target: T3, Human CD122; test: cell-based or functional assay

Binder | IC50, IL-15-induced CD4+ T cell accumulation [µg/mL] | IC50, IL-15-induced skin-resident CD8+ T cell accumulation [µg/mL] | fold improvement of potency over VillMab-1, IL-15 stimulated M07e assay [fold]
B8 | 2.1 | 1.9 | ~2
B9 | 1.8 | 1.8 | ~2

biological target: T1, Human CD122 His tagged; test: Biacore SPR, Fab, 1:1 binding

Binder | Kd [nM] | koff [s⁻¹] | kon [M⁻¹ s⁻¹]
B4 | 16.5 | 0.00372 | 226000

biological target: T2, Rhesus CD122 His tag; test: Biacore SPR, Fab, 1:1 binding

Binder | Kd [nM] | koff [s⁻¹] | kon [M⁻¹ s⁻¹]
B4 | 12 | 0.00279 | 233000

biological target: T1, Human CD122 His tagged; test: Biacore, Fab affinity and kinetics on hCD122

Binder | Kd [nM] | koff [s⁻¹] | kon [M⁻¹ s⁻¹]
B1 | 5.5 | 0.0034 | 610000
B2 | 11.5 | 0.0039 | 340000
B3 | 10.7 | 0.0046 | 430000
B4 | 12.4 | 0.0034 | 270000
B5 | 8 | 0.0044 | 540000
B6 | 4.3 | 0.0037 | 850000
B7 | 10.2 | 0.0058 | 570000

biological target: T4, Human BCAM protein; test: binding ELISA on human BCAM protein, IgG at log10 about 1.1 to 3.0 nM, OD450nm

Binder | binding result
B8 | no binding (tested: 1000 nM (log10 3.0))
B10 | binds
B11 | binds
B9 | no binding (tested: 1000 nM (log10 3.0))

biological target: T5, Human CILP2 protein; test: BIACORE SPR, Fab at 62.5, 125, 250, 500 and 1000 nM on human CILP2 protein; Rmax

Binder | binding result
B1 | no binding (tested: 1000 nM)
B2 | no binding (tested: 1000 nM)
B3 | no binding (tested: 1000 nM)
B4 | no binding (tested: 1000 nM)
B5 | no binding (tested: 1000 nM)
B6 | no binding (tested: 1000 nM)
B7 | no binding (tested: 1000 nM)

biological target: T6, Human neudesin protein (human, UniProt Q9UMX5 32-172); test: BIACORE SPR, Fab at 62.5, 125, 250, 500 and 1000 nM on human neudesin protein; Rmax
T6 construct: also called NENF
T6 sequence (Q9UMX5 32-172 limits assumed): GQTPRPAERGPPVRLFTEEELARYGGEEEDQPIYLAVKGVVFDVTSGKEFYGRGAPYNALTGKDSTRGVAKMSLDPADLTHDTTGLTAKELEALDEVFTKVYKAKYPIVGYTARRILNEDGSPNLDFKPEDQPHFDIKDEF

Binder | binding result
B1 | no binding (tested: 1000 nM)
B2 | no binding (tested: 1000 nM)
B3 | no binding (tested: 1000 nM)
B4 | no binding (tested: 1000 nM)
B5 | no binding (tested: 1000 nM)
B6 | no binding (tested: 1000 nM)
B7 | no binding (tested: 1000 nM)
